Laboratory results: the nanobody polyreactivity screen of Harvey et al. (2022)

Assay: yeast display, Sf9 membrane polyspecificity reagent, FACS + sequencing; frameworks hold sequencing errors
Procedure, shortened: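 Sorting gates, low and high (top ~1%), were placed on anti-HA fluorescence to track expression and on streptavidin fluorescence to track reagent binding. A clone's polyreactivity label is taken from the gate it came out of. The reagent was 10% biotinylated, detergent-solubilized Sf9 membrane, applied for 1 hour at 4 °C to galactose-induced yeast display cells.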

Sequence	polyreactivity (PSR sort gate)
QVQLVESGGGLVQAGGSLRLSCAASGRTFGYNVMGWYRQAPGKERELVAVINGRGGSTYYADSVKGRFTISRDNAKNTVYLQMNSLKPEDTAVYYCNVVSGGYFEYDYWGQGTQVTVSS	high polyreactivity
PVQLVESGGGLVQAGGSLRLSCSSSGRIFASNAMGWYRQPPGKDRELVAAIDQGGGSTYYADSVKGRFTISRDNAKITVYLQMNSLKPEDTAVYYCAADYITAYPRLYNYWGLGTQVTVSS	low polyreactivity
QVQLVESGGGLVQAGGSLRLSCDASGSTFWYAMGWYIKAPGKEMDLVAAITARGGRTYYADSVKGRFTISRDNAKNTVYLQMNSLKPEDTAVYYCARLSYAGGQWIIGKYDYWGQGTQVTVSS	high polyreactivity
QVQIVESGGGLVQAGGSLRLSCAASGFIFNIYAMGWYRQAPGKERELVAAITFSGGSTYYADSVKGRFTISRDNAKNTVYFQMNSLKPEDTAVYYCAADYLSEYTTYDYWGQGTQVTVSS	low polyreactivity
QVQLVESGGGLVQAGGSLRLSCSDSGRTFGGNAMGRYRQAPGKERELVAAISRSGGTTYYADSVKGRFTISRDNAKNTVYLQMNSLKPEDTAVYYCNTRRYGAMYYWGQGTQVTVSS	high polyreactivity
QVQLVESGGCLVQAGGTLRLSCAASGSILNSYALGWYRQAPGKERELVAAIDNRGGSTHYADSVKGRFTISRDNAKNTVYLQMNSLKPEDTAVYYCAKRFYGSVGYWRYYYWGQGTQVTVSS	low polyreactivity
QVQLVESGGGLVQAGGSLRLSCAASGSNFYRNAMGWYRQAPGKERELVAGIRWTGTRTYYADSVKGRFTISRDNAKNTVYLQMNSLKPEDTAVYYCNAVYSLSNAVDGDYWGQVTQVTVSS	high polyreactivity
QVQLVESGGALVLAGGSLRLSCAASGFTFQYYAMGWYRQAPGKERELVAAIDWTGGSTYYADSVKGRFTISRDNAKNTVYLQMNSLKPEDTAVYFCNRELTSPRRWHVSRAYDYWGQGTQVTVSS	low polyreactivity
QVQLVESGGGLVQAGGSLRLSCAASGRTFSFYAMVWYRQAPGKERELVAGIDWDDGSTSYADSVKGRFTISRDNAKNTVYLQMNSLKQEDTAVCYCAADIGYDVYNDYDYWGQGTQVTVSS	low polyreactivity
QVQLVESGGGLVQAGGSLRLSCAASGSTFPYNAMGWYRQAPGKEREMVAAITYSGGSTYYADSVKGRFTISRDNAKNTVYLQMNSLKPEDTAVYYCNADDSTTYDYWGQGTQVTVSS	low polyreactivity
QVQLVESGGGLVQAGGSLRLSCAASGLTFKTYAMGWYRQAPGKERELVAAISRSGGSTSYADSVKGRFTISRDNAKNTVYLQMNSLKPEDTAVYYCAAKTYEPRKYEYWGQGTQVTVSS	high polyreactivity
QVQLVESGGGLVQAGGSLRLSCAASGGTFRSNAMGWYRQAPGKERELVAAITRTGRTNYADSVKGRFTISRDNAKNTVYLQMNSLKPEDTAVYYCNAARYVREYDYWGQGTQVTVSS	high polyreactivity
QVQLVESGGGLVQAGGSLRLSCAAYGITLYKYAMGWYRQAPGKERELVASISRSGGSTYYADSVKGRFTISRDNAKNTVYLEMNSLKPEDTAVYYCAKAVWWSRPAQKSYLYYYWGHGTQVTVSS	high polyreactivity
QVLLVESGGGLVQAGGSLRLSCSASGNAMGWYRQAPGKERELVAAITRRGGSTYYADSVKGSFTISRDNAKNTVYLQMNSLKPEDTAVYYCADDNPSYNLWYGYWGQGTQVTVSS	low polyreactivity
QVQLVESGGGLVQAGGSLRLSCAASGRIFAYNTMGWYRQAHGKEREFVAVITSGGSTNYADSVKGRFTISRDNAKNTVFLLLNSLKPEDTAVYYCAKRPYGRSGGSRYDYWGQGTKVTVSS	high polyreactivity
QVQLVESGAGLVQAGGSLRLSCAASGRIFYPYAMGRSRQAPGKERELVAAISGRGGRTYYADSVKGRFTISRDNAKNTVYLQMKSLKPEYTAVYYCNRVVSGYPGSDYWGNGTQVTVSS	high polyreactivity
QVQLVESGGGLVQAGGSLRLSCAASGFIFGKNAMGWYRQAPGKERELVAVISWRGSSTYYADSVKGRFTISRDNAKNTVYLQMNSLKPEDTAVYYCAARYPARGTLYYWGQGTQVTVSS	low polyreactivity
QVQLVESGGGLVQAGGSLRLSCAASGGTFQSNAKGWYRQAPGKERELVASITSRGSSTYYADSVKGRFTISRDNAKNTVYLQMNSLKPEDTAVFYCAKGRSLQMYYKGGIKGGYWGQGTQVTVSS	low polyreactivity
QVQLVESGGGLVQAGGSLRLSCAAYGSTFYVYAMGWYRQAPGKESELVAAITSAGSTNYADSVKGRFTISRDNAKYTVYLQMNSLKPEDTAVYYCAVYFDTFYGHMYYWGQCTQVTVSS	low polyreactivity
QVQLEESGGVLVQAGGSLRLSCAASGSNFYLYAMGWYRQAPGKERELVAGITRSGGRTYYADSVKGRFTISRDNAKNTVYLQMNSLKPEDTAVYYCAAYLVVRIRYTQRYDYWGQGTQVTVSS	low polyreactivity
QVQLVESGGGLVQAGGSLRLSCAASGRIFGGYTMGWYRQAPGKERELVAAITGSGGRTYYADSVKGRFTISRDNAKNTVYLQMNSLKPEDTAVYYCNTVYRYRYYWGQGTQVTVSS	high polyreactivity
QVQLVESGGGLVQAGGSLRLSCAASGRTFRIYAMGWYRQAPGKERELVAAITWGGGSTYYADSVKGRFTISRDNAKNTVYLQMNSLKPEDTAVYYCARVGWSWPRREKYNYWGQGTQVTVSS	high polyreactivity

Sequence	polyreactivity (PSR sort gate)
QVQLVESGGGLVQAGGSLRLSCAASGYIFGFYAKGWYRQAPGKERELVARITYSGTSTYYADSVKGRFTISRDNAKNTVYLQMNSLKPEDTAVYYCAKRNKRSAWDSDEYDYWGQGTQVTVSS	low polyreactivity
QLQLVESGGGLVQAGGSLRLSCAASVRIFDVYAMGWYRQAPGKERELVAAITWDGGSTYYADSVKGRFTISRDNAKNTVYLQMNSLKPEDTAVYYCAAEPVYTQRKGYDYWGHGTQVTVSS	low polyreactivity
QVQLVESGGGLVQAGGSLRLSCAASGFISFPYAMGWYRQAPGKERELDASITRSGGNTYYADSVKGRFTISRDNAKNTVYLQMNRLKPEDTAVYYCNAQIYTYRTGRGYSRLDYWGQGTQVTVSS	high polyreactivity
QVQLVESGGGLVQAGGSLRLSCAASGFTFYSYAMGWYRQAPGKERELVATISRNGGTTRYADSVKGRFTISRDNAKNTVYLQMNSLKPEDTAVYYCNAVYYAYSRHSYAMDYWGQGTQVTVSS	high polyreactivity
QVQLVESGGGLVQAGGSLRLSCAASGSIFIWNALGCYRQAPGKERELVAAIRSSGGTTYYADSVKGRFTISRDNAKYTVYVQMNSLKPEDTAVYYCARRGYSSSYRYPRYYYWGQGTQVTVSS	high polyreactivity
QVQLVESGGGLVQAGGSLRLSCAASGFIFFDNAMGWYRHAPGKETELVAVISSSGTSTYYADSVKGRFTISRDNAKNTVYLQMNSLKPEDTAVYYCNATARTGVYLESDYWGQGTQVTVSS	low polyreactivity
QVQLVESGGGLVQAGGSLRLSCAASGSIFDYNSMGMYIQAPGKERELVAAISSGGTTYYADSVKGRFTISLDNAKNTVYLHIKSLKPEDTDVYYCAARRAGWWGFYYWGQCTQVTVSS	high polyreactivity
QVQLVESGVGLVQAGGSLRLSCAASGRTFPYYAMGWYRQAPGKERELVAAISRRGASTYYADSVKGRFTISRDNAKNTVYLQINSLKPEDTAVYYCNAVYRGYYSGELDYWGQGTQVTVSS	high polyreactivity
QVQLVESGGGLVQAGGSLRLSCAASGSIFYRYAMGWYRQAPGKERELVATITRRGGTTYYADSVKGRFTISRDNAKNTVYLKMNSLKPEDTAVYYCARPYLRASYGAIDYDYWGQGTQVTVSS	high polyreactivity
QVQLVESGGGLVQAGGSLRLSCAASGYIYIVYSMGWYRQAPVKERELVAAISSGGITDYADSVKGRFTISRDNAKNTVYLQMNSLKPEDTAVYYWGQGTQVTVSA	low polyreactivity
QVQLGESGGGLVQAGGSLRLSCAASGRIFWGYAMGWYRQAPGKERELVAAITRGTRTNYADSVKGRFTISRDNAKNTVYLQMNSLKPEDTAVYYCAADYRDSYLFYYWGQGTQVTVSS	high polyreactivity
QVQLVESGGGLVQAGGSLRLSCAASGSTFTHYAMGWYIQAPWKERELVAGISWGGSSTYYADSVKGRFTISRDNAKNTVYLQMNSLKPEDTAVYYCAAGRRGSYPGGYGYWGQGTQVTVSS	low polyreactivity
QVQLVESGGGLVQAGGSLRLSCAASGFTFGYYAMGWYRQAPRKERELVAAISSSSGRTHYADSVKGRFTISRDNAKNTVYLQMNSLKPEDTAVYYCAAEFYYLYYYWGQGTQVTVSS	high polyreactivity
QVQLVESGGGLVQAGGSLRLSCAASGSILGYNAMGWYRQAPGKEREFVAAITYSGGTTYYADSVKGRFTISRDNAKNTVYLQMNSLKPEDTAVYYCAADYSVYDEFDYWGQGTQVTVSS	high polyreactivity
QVQLVESGGGLVQAGGSLRLSCAASGRIFGYTMGWYRPAPGKERELVAAISRSAGSTYYADSVKGRFTISRDNAKNTVYLQMNSLKPEDTAVYYCAATGRYYREYDYWGQGTQVTVSS	high polyreactivity
QVQLVESGGGLVQAGGSLRLSCADSGSIFWGNAMGWYRQAPGKERELVAAITRGGSTYYADSVKGRFTISRDNAKNTVYLQMNSLTPEDTAVYYWAVLSRRYAAYDYWGLGTQVTVSS	high polyreactivity
QVQLVETRGGLVQAGGSLRLSCAASGSIFLQNAMGWYRQAPGKERELVAAITNGGSTNYADSVKGRFTISRDNAKNTVYLQMNSLKPEDTAVYYCAAYPLYTGSYDRGGYWGQGTQVTVSS	low polyreactivity
QVQLVESGGGLVQAGGSLRLSCAASGLTFRANDMGWYRQAPGKERELVAGITESGDSTYYADSVKGRFTISRDNAKNTVYLQMNSLKPEDTAVYYCAAGSYYWYWYRVGEWYAYEYWGQGTQVTVSS	low polyreactivity
QVQLVESGGGLDQAGGSLRLSCAASGITFYRYVKGWYRQAPGKEREYVAAINWSTGTTNYADSVKGRFTISRDNAKNTVYFQMNILKPEDTAVYYCNARYRLRYIYSLRYDYWGQGTHVTVSS	high polyreactivity
QVQLVESGGGLVQAGGSLRLSCAASGRTFRYNAMGWYRQAPGKERELVAGITYNGGSTSYADSVKGRFTISRDNAKNTVYLQMNSLKPEDTAVYYCNVVYNYYGRFGSWGQGTQVTVSS	high polyreactivity
QVQLVESGGGLVQAGGSLRLSCAASGSIFAPYAMGWYRQAPGKERELVAAISRSGGSTYYADSVKGRFTISRDNAKNTVYLQMNSLKPEDTAVYYCAVRNGLRQYRLDYWGQGTQVTVSS	high polyreactivity
